Experimental data published in patent US20130236459A1 (MERRIMACK PHARMACEUTICALS, published 2013).
Where a chain is given by its changes, count along the chain named. Read-outs that look alike come from different tables or passages of the source. Blank lines part the entries; values can stand above or below the binder they belong to.

What was measured:
[1] = molecular target: T1, IGF-1R (receptor for insulin-like growth factor 1), endogenous on human tumor cell lines (human, UniProt P08069 31-1367); assay: cell-based or functional assay
T1 sequence (P08069 31-1367): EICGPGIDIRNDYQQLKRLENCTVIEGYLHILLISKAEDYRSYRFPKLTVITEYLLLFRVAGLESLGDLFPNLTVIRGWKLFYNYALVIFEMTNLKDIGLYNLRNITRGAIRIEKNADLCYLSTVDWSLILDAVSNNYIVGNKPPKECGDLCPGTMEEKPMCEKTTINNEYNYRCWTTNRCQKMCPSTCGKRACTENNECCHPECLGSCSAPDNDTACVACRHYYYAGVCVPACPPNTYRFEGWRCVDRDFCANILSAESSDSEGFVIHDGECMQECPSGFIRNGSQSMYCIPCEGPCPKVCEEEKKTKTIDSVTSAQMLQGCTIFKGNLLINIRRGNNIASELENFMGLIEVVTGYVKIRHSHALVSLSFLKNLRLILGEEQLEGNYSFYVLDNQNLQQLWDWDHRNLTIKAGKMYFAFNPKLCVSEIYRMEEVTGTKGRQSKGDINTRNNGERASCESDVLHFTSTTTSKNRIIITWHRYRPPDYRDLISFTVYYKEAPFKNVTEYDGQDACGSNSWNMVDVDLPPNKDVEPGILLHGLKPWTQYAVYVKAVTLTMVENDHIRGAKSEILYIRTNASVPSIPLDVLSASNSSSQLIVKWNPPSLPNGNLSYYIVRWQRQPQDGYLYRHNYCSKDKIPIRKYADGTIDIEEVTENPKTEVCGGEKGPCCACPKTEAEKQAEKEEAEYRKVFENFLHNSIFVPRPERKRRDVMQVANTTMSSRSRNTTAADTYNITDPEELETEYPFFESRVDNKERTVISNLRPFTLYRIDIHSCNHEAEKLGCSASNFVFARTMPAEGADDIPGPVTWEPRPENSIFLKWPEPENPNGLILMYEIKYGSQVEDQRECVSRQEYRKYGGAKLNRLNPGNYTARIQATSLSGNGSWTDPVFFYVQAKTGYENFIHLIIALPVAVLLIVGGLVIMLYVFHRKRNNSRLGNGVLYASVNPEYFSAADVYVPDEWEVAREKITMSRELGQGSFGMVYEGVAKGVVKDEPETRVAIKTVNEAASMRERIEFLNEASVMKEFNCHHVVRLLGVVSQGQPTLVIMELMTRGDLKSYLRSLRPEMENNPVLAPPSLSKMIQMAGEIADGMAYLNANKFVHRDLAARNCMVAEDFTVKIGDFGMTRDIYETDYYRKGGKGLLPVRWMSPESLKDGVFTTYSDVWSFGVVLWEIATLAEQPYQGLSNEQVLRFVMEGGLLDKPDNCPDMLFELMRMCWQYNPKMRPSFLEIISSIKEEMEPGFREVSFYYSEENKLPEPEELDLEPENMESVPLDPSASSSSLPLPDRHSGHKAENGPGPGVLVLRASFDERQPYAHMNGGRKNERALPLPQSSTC

[2] = molecular target: T1, IGF-1R (receptor for insulin-like …); assay: cell-based or functional assay; remark: listed apart in the source
[3] = molecular target: T1, IGF-1R (receptor for insulin-like …); assay: cell-based or functional assay; remark: listed apart in the source
[4] = molecular target: T1, IGF-1R (receptor for insulin-like …); assay: cell-based or functional assay; remark: listed apart in the source
[5] = molecular target: T1, IGF-1R (receptor for insulin-like …); assay: cell-based or functional assay; remark: listed apart in the source
[6] = molecular target: T1, IGF-1R (receptor for insulin-like …); assay: cell-based or functional assay; remark: listed apart in the source
[7] = molecular target: T1, IGF-1R (receptor for insulin-like …); assay: cell-based or functional assay; remark: listed apart in the source
[8] = molecular target: T2, ErbB3 (HER3), endogenous on human tumor cell lines (human, UniProt P21860 20-1342); assay: cell-based or functional assay
T2 sequence (P21860 20-1342 limits assumed): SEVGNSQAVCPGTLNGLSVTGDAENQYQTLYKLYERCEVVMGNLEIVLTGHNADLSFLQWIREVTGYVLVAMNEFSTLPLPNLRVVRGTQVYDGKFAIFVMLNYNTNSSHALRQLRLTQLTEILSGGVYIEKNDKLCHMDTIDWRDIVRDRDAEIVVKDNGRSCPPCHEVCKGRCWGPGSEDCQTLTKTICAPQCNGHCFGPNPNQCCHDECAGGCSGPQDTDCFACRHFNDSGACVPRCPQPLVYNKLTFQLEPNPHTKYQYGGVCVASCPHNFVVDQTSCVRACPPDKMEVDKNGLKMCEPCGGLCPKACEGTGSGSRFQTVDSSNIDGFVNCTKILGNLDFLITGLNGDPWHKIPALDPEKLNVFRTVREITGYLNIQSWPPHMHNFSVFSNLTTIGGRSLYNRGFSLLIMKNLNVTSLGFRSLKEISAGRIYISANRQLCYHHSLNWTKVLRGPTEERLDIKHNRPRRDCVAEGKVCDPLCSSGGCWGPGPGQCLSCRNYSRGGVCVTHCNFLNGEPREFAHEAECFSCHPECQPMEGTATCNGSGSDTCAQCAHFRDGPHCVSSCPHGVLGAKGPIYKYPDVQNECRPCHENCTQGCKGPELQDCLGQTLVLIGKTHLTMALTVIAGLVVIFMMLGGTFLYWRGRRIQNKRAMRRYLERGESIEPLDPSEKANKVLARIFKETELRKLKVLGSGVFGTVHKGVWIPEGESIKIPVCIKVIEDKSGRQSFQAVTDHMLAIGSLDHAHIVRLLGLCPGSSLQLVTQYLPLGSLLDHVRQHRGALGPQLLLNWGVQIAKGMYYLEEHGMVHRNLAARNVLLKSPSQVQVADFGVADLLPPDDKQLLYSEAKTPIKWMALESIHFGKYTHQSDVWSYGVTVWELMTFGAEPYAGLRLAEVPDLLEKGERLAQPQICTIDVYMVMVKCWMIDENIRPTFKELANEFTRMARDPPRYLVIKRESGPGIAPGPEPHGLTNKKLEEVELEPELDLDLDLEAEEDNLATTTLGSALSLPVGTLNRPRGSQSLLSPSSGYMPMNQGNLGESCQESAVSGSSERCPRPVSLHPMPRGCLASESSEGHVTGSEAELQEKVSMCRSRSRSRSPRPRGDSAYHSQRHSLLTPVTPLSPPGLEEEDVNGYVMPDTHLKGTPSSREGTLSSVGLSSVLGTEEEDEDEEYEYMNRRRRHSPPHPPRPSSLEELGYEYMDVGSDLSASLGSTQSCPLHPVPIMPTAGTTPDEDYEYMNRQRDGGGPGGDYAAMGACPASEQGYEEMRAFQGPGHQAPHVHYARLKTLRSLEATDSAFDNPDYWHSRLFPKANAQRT

[9] = molecular target: T2, ErbB3 (HER3), endogenous on human tumor …; assay: cell-based or functional assay; remark: listed apart in the source
[10] = molecular target: T2, ErbB3 (HER3), endogenous on human tumor …; assay: cell-based or functional assay; remark: listed apart in the source
[11] = molecular target: T1, IGF-1R (receptor for insulin-like …); assay: summary sentence of Example 3 (FACS on cells)
Method: (§1) 1×10⁵ MCF7 cells or 1×10⁵ ADRr cells are incubated at room temperature for 2 hours with each of ELI-7, ILE-10 and ILE-12, two anti-ErB3 antibodies and one anti-IGF-1R antibody at 2 uM, followed by 12 subsequent 3-fold dilutions. Then using goat anti-HSA-Alexa647 conjugated antibody as the detection antibody, cells are incubated on ice for 40 minutes. Cell binding dissociation constants (measures of binding affinities) of the antibodies on MCF7 and ADRr cells are assessed by FACS and apparent dissociation constants are determined for each protein. The following results were obtained (see also FIGS. 14A and 14B): […]

[12] = molecular target: T2, ErbB3 (HER3), endogenous on human tumor …; assay: summary sentence of Example 3 (FACS on cells)
Method: as §1

B2: ANTI-IGF-1R Ab# A (ganitumab) (antibody, V domains shown)
VH: QVQLQESGPGLVKPSGTLSLTCAVSGGSISSSNWWSWVRQPPGKGLEWIGEIYHSGSTNYNPSLKSRVTISVDKSKNQFSLKLSSVTAADTAVYYCARWTGRTDAFDIWGQGTMVTVSS
VL: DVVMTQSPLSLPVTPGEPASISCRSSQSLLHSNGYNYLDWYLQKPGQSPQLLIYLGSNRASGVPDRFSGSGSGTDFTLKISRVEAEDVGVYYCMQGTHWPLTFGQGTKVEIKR
- pAKT IC50 (BxPC-3 50% ErbB3 KD) [2]: 1.3e-07 M
- pAKT IC50 (BxPC-3 50% IGF1R KD) [2]: 4e-08 M
- pAKT IC50 (BxPC-3 Vector Control) [2]: 2.1e-08 M
- pAKT IC50 (BxPC-3) [3]: 8e-11 M (inferred)
- pIGF1R IC50 (BxPC-3) [3]: 1.6e-09 M (inferred)
- % IGF1R Downregulation (A549, 24 h) [4]: 57%
- % IGF1R Downregulation (BxPC-3, 24 h) [4]: 51%
- pAKT IC50 (BxPC-3) [5]: 2.6e-10 M (inferred)
- pIGF-1R IC50 (BxPC-3) [5]: 1.5e-10 M (inferred)
- pAKT IC50 (BxPC-3, IGF1 40 ng/ml) [6]: 7.4e-09 M
- pAKT IC50 (BxPC-3, IGF1 400 ng/ml) [6]: 9.1e-09 M
- pIGF1R IC50 (BxPC-3, IGF1 40 ng/ml) [6]: 7.8e-10 M
- pIGF1R IC50 (BxPC-3, IGF1 400 ng/ml) [6]: 2.5e-10 M

B3: P4-G1-M1.3 (bispecific antibody, human IgG1, kappa)
heavy: not shown
light: DIQMTQSPSSLSASLGDRVTITCRASQGISSYLAWYQQKPGKAPKLLIYAKSTLQSGVPSRFSGSGSGTDFTLTISSLQPEDSATYYCQQYWTFPLTFGGGTKVEIKRTVAAPSVFIFPPSDEQLKSGTASVVCLLNNFYPREAKVQWKVDNALQSGNSQESVTEQDSKDSTYSLSSTLTLSKADYEKHKVYACEVTHQGLSSPVTKSFNRGEC
- pIGF1R % Inhibition (BxPC-3) [7]: 92%
- pIGF1R IC50 (BxPC-3) [7]: 1.8e-10 M (inferred)
- pErbB3 % Inhibition (BxPC-3) [8]: 94%
- pErbB3 IC50 (BxPC-3) [8]: 5.5e-11 M (inferred)
- pIGF1R IC50 (BxPC-3) [3]: 1.1e-09 M (inferred)
- pErbB3 IC50 (BxPC-3) [9]: 5.3e-11 M (inferred)
- % IGF1R Downregulation (A549, 24 h) [4]: 72%
- % IGF1R Downregulation (BxPC-3, 24 h) [4]: 71%
- pAKT IC50 (BxPC-3, IGF1 40 ng/ml) [6]: 1.4e-10 M
- pAKT IC50 (BxPC-3, IGF1 400 ng/ml) [6]: 2.1e-10 M
- pIGF1R IC50 (BxPC-3, IGF1 40 ng/ml) [6]: 1.2e-10 M
- pIGF1R IC50 (BxPC-3, IGF1 400 ng/ml) [6]: 9.9e-11 M
- pAKT IC50 (BxPC-3, HRG 20 ng/ml) [10]: 3.97e-11 M
- pAKT IC50 (BxPC-3, HRG 200 ng/ml) [10]: 4.09e-11 M
- pErbB3 IC50 (BxPC-3, HRG 20 ng/ml) [10]: 3.12e-11 M
- pErbB3 IC50 (BxPC-3, HRG 200 ng/ml) [10]: 2.72e-11 M

More lines, now with the values ahead:

- pAKT IC50 (BxPC-3) [1]: 1.4e-08 M (inferred)
- pAKT IC50 (DU145) [1]: 9.8e-09 M (inferred)
- pIGF-1R IC50 (BxPC-3) [1]: 2.4e-09 M (inferred)
- pIGF-1R IC50 (DU145) [1]: 9.1e-10 M (inferred)
B1: Anti-IGF-1R Ab# B (cixutumumab) (antibody, V domains shown)
VH: EVQLVQSGAEVKKPGSSVKVSCKASGGTFSSYAISWVRQAPGQGLEWMGGIIPIFGTANYAQKFQGRVTITADKSTSTAYMELSSLRSEDTAVYYCARAPLRFLEWSTQDHYYYYYMDVWGKGTTVTVSS
VL: SSELTQDPAVSVALGQTVRITCQGDSLRSYYATWYQQKPGQAPILVIYGENKRPSGIPDRFSGSSSGNTASLTITGAQAEDEADYYCKSRDGSGQHLVFGGGTKLTVLG

- binding result [11]: binds
- binding result [12]: binds
B4: ILE-10 (bispecific antibody, human IgG2, kappa)
heavy: EVQLLESGGGLVQPGGSLRLSCAASGFTFSVYPMHWVRQAPGKGLEWVSSISSSGGATRYADSVKGRFTISRDNSKNTLYLQMNSLRAEDTAVYYCAKDFYDILTGNAFDIWGQGTMVTVSSASTKGPSVFPLAPCSRSTSESTAALGCLVKDYFPEPVTVSWNSGALTSGVHTFPAVLQSSGLYSLSSVVTVPSSNFGTQTYTCNVDHKPSNTKVDKTVERKCCVECPPCPAPPVAGPSVFLFPPKPKDTLMISRTPEVTCVVVDVSHEDPEVQFNWYVDGVEVHNAKTKPREEQFNSTFRVVSVLTVVHQDWLNGKEYKCKVSNKGLPAPIEKTISKTKGQPREPQVYTLPPSREEMTKNQVSLTCLVKGFYPSDIAVEWESNGQPENNYKTTPPMLDSDGSFFLYSKLTVDKSRWQQGNVFSCSVMHEALHNHYTQKSLSLSPGKGGGGSGGGGSGGGGSLQEVQLLESGGGLVQPGGSLRLSCAASGFTFSAYNMRWVRQAPGKGLEWVSVIYPSGGATRYADSVKGRFTISRDNSKNTLYLQMNSLRAEDTAVYYCARGYYYYGMDVWGQGTLVTVSSASTGGGGSGGGGSGGGGSQSVLTQPPSASGTPGQRVTISCSGSDSNIGRNYIYWYQQFPGTAPKLLIYRNNQRPSGVPDRISGSKSGTSASLAISGLRSEDEAEYHCGTWDDSLSGPVFGGGTKLTVLS
light: B3 light with L11F, L15T, K51A, W92F
notes: anti-IGF-1R/anti-ErbB3 IgG2-(scFv)2: anti-IGF-1R IgG2 (module 5-7), anti-ErbB3 scFv (module 2-3); also called 14F; 14f
